Laboratory results: publication PMC7790537

Assays:
[1] = biological target: recombinant trimeric HA of A/New Caledonia/20/1999 (H1N1) (influenza A virus A/New Caledonia/20/1999 (H1N1)) (UniProt Q6WG00)
[2] = biological target: recombinant trimeric HA of A/Victoria/210/2009 (H3N2) (influenza A virus A/Victoria/210/2009 (H3N2))

Fab-deficient (ΔFab) IgA2m2 polymer (from UniProt P01591 23-159) (complex)
> 500 µg/mL: HI activity, minimum HI concentration, NC20 virus [1] | HI activity, minimum HI concentration, Vic210 virus [2] | NT activity, minimum virus-neutralizing concentration, Vic210 virus [2]

Fab-deficient (ΔFab) IgA1 polymer (from UniProt P01591 23-159) (complex)
> 500 µg/mL: HI activity, minimum HI concentration, NC20 virus [1] | HI activity, minimum HI concentration, Vic210 virus [2] | NT activity, minimum virus-neutralizing concentration, Vic210 virus [2]
